# According to the supplement of paper PMC10126150:
# ± gives the standard deviation of the averaged measurements.
# Tested on: ATP
# Assay: switch fluorescence ratio, 500 uM ATP over buffer (Cy3 cluster intensity, sum of 5 cycles each) (fold (ratio)); higher = stronger signal-on switching upon ATP binding; sequences stand for … in TCGTCGGCAGCGTCAGATGTGTATAAGAGACAGTTTTTTTTTTTTTTTTTTTTTTTTT…TC
# Conditions: aptamer strand: ATP DNA aptamer (quencher-CACCTGGGGGAGTATTGCGGAGGAAGG + anchor), 100 nM annealed; ATP concentration: 500 uM
# In short: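 After annealing to 100 nM quencher-labelled ATP aptamer, Cy3-labelled switching-strand clusters on a modified Illumina MiSeq flow-cell were imaged in selection buffer. A second image followed after 15 min with 500 uM ATP at 22 °C, and five such buffer/ATP cycles were done, each separated by NaOH stripping and re-annealing. The fluorescence ratio, averaged per switch-domain sequence, is summed target-cycle over summed buffer-cycle Cy3 intensity per cluster, with clusters outside 100-1000 RFU excluded.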
# 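Further: ATP exposure 15 min at 22 °C before imaging.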
row,Sequence,switch fluorescence ratio
1,CGGAGGGTAC,1.61 ± 0.08
2,CGGAGTGGGG,1.01 ± 0.012
3,CGGAGTTTTG,1.01 ± 0.027
4,CGGATACGCC,1.09 ± 0.028
5,CGGATATGGT,1 ± 0.013
6,CGGATGCGGT,1.013 ± 0.0075
7,CGGATGGGGG,1.01 ± 0.046
8,CGGATGGGTG,0.996 ± 0.021
9,CGGATGGTCA,1.013 ± 0.0099
10,CGGATGTTAT,0.9626 ± 0.0096
11,CGGATTAGGG,1 ± 0.022
12,CGGATTCCCC,1.06 ± 0.011
13,CGGATTCGAG,0.98 ± 0.035
14,CGGATTGGGA,1.002 ± 0.0026
15,CGGATTTGGG,0.957 ± 0.067
16,CGGCAACGGT,1.01 ± 0.011
17,CGGCAAGTGC,2.19 ± 1
18,CGGCAGTATG,1.02 ± 0.011
19,CGGCAGTGTG,1.01 ± 0.048
20,CGGCATAGAT,1.04 ± 0.029
21,CGGCATGAGG,0.972 ± 0.018
22,CGGCCAACGC,1.17 ± 0.028
23,CGGCCATCGG,0.9978 ± 0.0049
24,CGGCCGAGAG,1.02 ± 0.018
25,CGGCCGAGGA,0.978 ± 0.01
26,CGGCCGGGGA,1.14 ± 0.19

row,Sequence,switch fluorescence ratio
1,CGGCCGTACG,1.01 ± 0.019
2,CGGCCTGTTG,1.01 ± 0.026
3,CGGCGAATAT,1.024 ± 0.0011
4,CGGCGATCGC,1.04 ± 0.011
5,CGGCGATGGG,1.11 ± 0.069
6,CGGCGGGCTT,1.02 ± 0.018
7,CGGCGGGTTT,1.02 ± 0.049
8,CGGCGTGTTT,1.052 ± 0.0087
9,CGGCTAAAGA,0.976 ± 0.011
10,CGGCTCCCGC,1.046 ± 0.0084
11,CGGCTGAATT,1 ± 0.003
12,CGGCTGGTGG,1.02 ± 0.016
13,CGGCTGTACG,1.07 ± 0.022
14,CGGCTTACTT,1.07 ± 0.011
15,CGGCTTGGTG,0.996 ± 0.048
16,CGGCTTTCCC,1.01 ± 0.028
17,CGGCTTTGGA,1.056 ± 0.0019
18,CGGGAAATAG,1.06 ± 0.02
19,CGGGAAGGCC,0.98791 ± 0.00011
20,CGGGAATCCT,1.11 ± 0.04
21,CGGGAATTAA,0.997 ± 0.03
22,CGGGAATTAG,1.01 ± 0.035
23,CGGGACGGGC,1.04 ± 0.043
24,CGGGAGAGTT,0.996 ± 0.065
25,CGGGAGCG,1.03 ± 0.022
26,CGGGAGGTAA,0.9863 ± 0.0038

row,Sequence,switch fluorescence ratio
1,CGGGATAGGG,0.977 ± 0.026
2,CGGGATGACA,0.979 ± 0.046
3,CGGGATGATT,0.998 ± 0.044
4,CGGGATGGAG,0.9879 ± 0.0062
5,CGGGATTTAG,1 ± 0.014
6,CGGGCAGTTG,0.9992 ± 0.0071
7,CGGGCATGGG,1.01 ± 0.029
8,CGGGCCACGT,0.997 ± 0.034
9,CGGGCCACTT,1.008 ± 0.0076
10,CGGGCCGGGA,0.976 ± 0.025
11,CGGGCCGTTT,1.06 ± 0.077
12,CGGGCCTTGA,0.981 ± 0.016
13,CGGGCGATAA,1.45 ± 0.0045
14,CGGGCGGACA,0.974 ± 0.04
15,CGGGCGGGTG,1.03 ± 0.017
16,CGGGCGTCTC,0.996 ± 0.022
17,CGGGCTATGG,1 ± 0.023
18,CGGGCTGTTG,0.963 ± 0.033
19,CGGGGAAAGC,0.985 ± 0.027
20,CGGGGAAGTG,1 ± 0.019
21,CGGGGAATTT,1.01 ± 0.022
22,CGGGGAGTAT,0.975 ± 0.015
23,CGGGGATCGT,1 ± 0.032
24,CGGGGATGCA,1.03 ± 0.023
25,CGGGGATGTC,1.05 ± 0.014
26,CGGGGATTTC,1 ± 0.027

row,Sequence,switch fluorescence ratio
1,CGGGGATTTG,0.976 ± 0.032
2,CGGGGCGAAG,0.984 ± 0.038
3,CGGGGCGGGA,1.01 ± 0.021
4,CGGGGCTGAA,0.991 ± 0.0089
5,CGGGGGAATG,0.967 ± 0.027
6,CGGGGGACTG,1.04 ± 0.039
7,CGGGGGAGTA,0.996 ± 0.018
8,CGGGGGATGG,1.01 ± 0.045
9,CGGGGGCCGA,1 ± 0.019
10,CGGGGGGACG,1.01 ± 0.084
11,CGGGGGGCTC,0.99 ± 0.01
12,CGGGGGGTAC,1.03 ± 0.036
13,CGGGGGGTAG,0.995 ± 0.035
14,CGGGGGGTGG,1 ± 0.039
15,CGGGGGGTTT,1.01 ± 0.025
16,CGGGGGTACA,1.02 ± 0.019
17,CGGGGGTAGT,1.03 ± 0.015
18,CGGGGGTCGA,0.989 ± 0.031
19,CGGGGTAGTC,0.967 ± 0.07
20,CGGGGTATTT,1 ± 0.022
21,CGGGGTCGTT,1 ± 0.024
22,CGGGGTGAAA,0.983 ± 0.029
23,CGGGGTGCCT,0.999 ± 0.024
24,CGGGGTGTTA,1.07 ± 0.057
25,CGGGGTTACT,0.9961 ± 0.0082
26,CGGGGTTATT,0.989 ± 0.014

row,Sequence,switch fluorescence ratio
1,CGGGGTTTGC,0.997 ± 0.015
2,CGGGGTTTGG,0.999 ± 0.017
3,CGGGTAAGTA,1.03 ± 0.097
4,CGGGTAATCG,1.01 ± 0.0082
5,CGGGTAATTC,1.128 ± 0.0039
6,CGGGTACTTT,1 ± 0.059
7,CGGGTATTAA,0.994 ± 0.032
8,CGGGTATTCG,0.99 ± 0.03
9,CGGGTATTGG,0.97968 ± 0.00074
10,CGGGTCGGTT,1.07 ± 0.1
11,CGGGTCTAAA,0.9966 ± 0.0027
12,CGGGTCTATT,0.9649 ± 0.001
13,CGGGTCTTAG,1.01 ± 0.011
14,CGGGTGAGGA,1.04 ± 0.04
15,CGGGTGAGTA,1.05 ± 0.08
16,CGGGTGCAAG,1.03 ± 0.027
17,CGGGTGGCCT,1 ± 0.02
18,CGGGTGGCGA,1.02 ± 0.081
19,CGGGTGGGAA,0.9995 ± 0.0026
20,CGGGTGGGCA,0.945 ± 0.019
21,CGGGTGGGGA,1.01 ± 0.04
22,CGGGTGGGGC,1.02 ± 0.052
23,CGGGTGGGGG,1.07 ± 0.036
24,CGGGTGGGTA,1 ± 0.023
25,CGGGTTAAAA,0.9714 ± 0.0034
26,CGGGTTAATA,0.989 ± 0.022

row,Sequence,switch fluorescence ratio
1,CGGGTTAGGA,1.02 ± 0.036
2,CGGGTTAGTT,1.002 ± 0.01
3,CGGGTTCAGT,0.974 ± 0.014
4,CGGGTTCGTG,0.972 ± 0.029
5,CGGGTTCTGG,0.989 ± 0.014
6,CGGGTTGCCT,0.999 ± 0.028
7,CGGGTTGGGA,1.007 ± 0.0042
8,CGGGTTGTGT,1 ± 0.02
9,CGGGTTTCGC,0.986 ± 0.014
10,CGGGTTTGTG,0.973 ± 0.032
11,CGGGTTTTCC,1.03 ± 0.042
12,CGGGTTTTTT,0.988 ± 0.032
13,CGGTAACCGG,0.979 ± 0.0098
14,CGGTAAGGCA,0.99 ± 0.017
15,CGGTAAGTGG,0.988 ± 0.024
16,CGGTAATATC,1.915 ± 0.016
17,CGGTACCGTT,1.02 ± 0.049
18,CGGTACGGGT,0.992 ± 0.025
19,CGGTAGATCG,1 ± 0.073
20,CGGTAGGCGG,0.971 ± 0.018
21,CGGTATAAGT,0.9949 ± 0.0042
22,CGGTATTATG,0.993 ± 0.022
23,CGGTATTCCG,0.945 ± 0.017
